In the supplement of paper PMC7125110:
± gives the standard error. Fewer inactive variants are shown than the library holds.

B1: glmS ribozyme (parent)
chain: AUAAAAGCGCCAGAACUACAGAAAUGUAGUUGACGAGGAGGAGGUUUAUCGAAUUUUCGGCGGAUGCCUCCAAA

Assays:
Details in all cases: with glucosamine-6-phosphate
glucosamine-6-phosphate [1] = variants of: B1; assay: self-cleavage kobs at 160 uM GlcN6P; higher = faster cleavage; RNA array
Summary of the method: (§1)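 In situ transcription by E. coli RNA polymerase produced barcoded ribozyme variants on sequenced MiSeq chips, and a hybridised Cy3 probe tracked them at 37 °C. Glucosamine-6-phosphate was flowed in at 40 μM to 10 mM in HEPES/KCl/Mg(OAc)2 buffer. kcat and KM were taken from weighted Michaelis–Menten fits of kobs values from exponential decay fits.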

glucosamine-6-phosphate [2] = variants of: B1; assay: self-cleavage kobs at 640 uM GlcN6P; higher = faster cleavage; RNA array
Summary of the method: as §1

glucosamine-6-phosphate [3] = variants of: B1; assay: self-cleavage kobs at 2500 uM GlcN6P; higher = faster cleavage; RNA array
Summary of the method: as §1

glucosamine-6-phosphate [4] = variants of: B1; assay: self-cleavage kobs at 10000 uM GlcN6P; higher = faster cleavage; RNA array
Summary of the method: as §1

Row | Variant | self-cleavage kobs at 160 uM GlcN6P (glucosamine-6-phosphate [1]) [s⁻¹] | self-cleavage kobs at 640 uM GlcN6P (glucosamine-6-phosphate [2]) [s⁻¹] | self-cleavage kobs at 2500 uM GlcN6P (glucosamine-6-phosphate [3]) [s⁻¹] | self-cleavage kobs at 10000 uM GlcN6P (glucosamine-6-phosphate [4]) [s⁻¹]
1 | G7U A12G G32U | < 1e-05 |  |  | 
2 | G7C C8G | < 1e-05 | < 1e-05 | < 1e-05 | < 1e-05
3 | C10U G44U C61A | < 1e-05 | < 1e-05 | < 1e-05 | 
4 | G9U C61U | < 1e-05 | < 1e-05 |  | < 1e-05
5 | C10A U45C | < 1e-05 | < 1e-05 | < 1e-05 | < 1e-05
6 | G9U U56C G62C | < 1e-05 | < 1e-05 |  | 
7 | C10U G29U U57C C67U U69G | 6.16e-05 ± 1.7e-05 | 8.17e-05 ± 1.9e-05 | 6.3e-05 ± 2e-05 | 
8 | G9A A52U C58U C70G | < 1e-05 | < 1e-05 |  | 
9 | G7A G62C C67G | < 1e-05 | < 1e-05 | < 1e-05 | 
10 | G9A A36G C67U | < 1e-05 |  |  | 
11 | G9U G37U C50U C67U | < 1e-05 |  |  | 
12 | C8U G35A G43U | < 1e-05 | < 1e-05 | < 1e-05 | 
13 | C11U A14G A39G G60C | < 1e-05 | < 1e-05 |  | 
14 | G7A C10A C16G G29A A42U G51U C61U | < 1e-05 |  | < 1e-05 | < 1e-05
15 | G7U C10G G13U A15U A39G | < 1e-05 | < 1e-05 | < 1e-05 | 
16 | G7U C61U | < 1e-05 | < 1e-05 |  | < 1e-05
17 | C11A A14C G35A C50G C71G | 0.000211 ± 3.9e-05 | 0.000433 ± 0.00014 | 0.000131 ± 4.3e-05 | 
18 | G9U C10U C67G | < 1e-05 | < 1e-05 | < 1e-05 | 
19 | G7A G32U G43C | < 1e-05 | < 1e-05 |  | 
20 | C8G G62C | < 1e-05 |  |  | 3.7e-05 ± 8.1e-06
21 | C8G G37U G51U | < 1e-05 | < 1e-05 |  | 
22 | G7A G37C A64G | < 1e-05 |  |  | 
23 | C10G A53C | < 1e-05 | < 1e-05 | < 1e-05 | < 1e-05
24 | C10U C34G | < 1e-05 | < 1e-05 | < 1e-05 | < 1e-05
